Results as given in patent US20170355769A1 (AbbVie / Abbott, published 2017).
Substitutions are numbered along the chain they refer to. Where two headings read alike, the source gives them in different places.

T1: Human full length B7-H3 (human, UniProt Q5ZPR3 29-534)
T1 construct: On 3T12 fibroblasts expressing full length human B7-H3 or on NCI-H1650 cells; signal peptide residues 1-28 stated; also called huB7-H3; CD276
T1 sequence: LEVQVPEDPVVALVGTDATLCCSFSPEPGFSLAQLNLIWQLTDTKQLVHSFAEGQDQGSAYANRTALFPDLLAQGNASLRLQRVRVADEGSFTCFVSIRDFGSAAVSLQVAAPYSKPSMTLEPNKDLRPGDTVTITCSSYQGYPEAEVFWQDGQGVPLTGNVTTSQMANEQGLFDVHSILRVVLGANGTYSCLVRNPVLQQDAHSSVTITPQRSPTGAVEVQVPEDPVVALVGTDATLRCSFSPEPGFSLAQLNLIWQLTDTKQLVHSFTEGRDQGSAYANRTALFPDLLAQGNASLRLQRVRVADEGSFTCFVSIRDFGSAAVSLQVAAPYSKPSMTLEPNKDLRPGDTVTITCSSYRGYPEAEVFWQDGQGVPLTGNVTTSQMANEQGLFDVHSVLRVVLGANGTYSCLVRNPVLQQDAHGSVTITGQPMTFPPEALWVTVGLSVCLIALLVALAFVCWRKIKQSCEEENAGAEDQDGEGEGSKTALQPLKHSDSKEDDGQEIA

T2: Human B7-H3-ECD (His tag) (human, UniProt Q5ZPR3 29-461)
T2 construct: SPR analyte; also called huB7-H3; soluble ECD of human B7-H3
T2 sequence: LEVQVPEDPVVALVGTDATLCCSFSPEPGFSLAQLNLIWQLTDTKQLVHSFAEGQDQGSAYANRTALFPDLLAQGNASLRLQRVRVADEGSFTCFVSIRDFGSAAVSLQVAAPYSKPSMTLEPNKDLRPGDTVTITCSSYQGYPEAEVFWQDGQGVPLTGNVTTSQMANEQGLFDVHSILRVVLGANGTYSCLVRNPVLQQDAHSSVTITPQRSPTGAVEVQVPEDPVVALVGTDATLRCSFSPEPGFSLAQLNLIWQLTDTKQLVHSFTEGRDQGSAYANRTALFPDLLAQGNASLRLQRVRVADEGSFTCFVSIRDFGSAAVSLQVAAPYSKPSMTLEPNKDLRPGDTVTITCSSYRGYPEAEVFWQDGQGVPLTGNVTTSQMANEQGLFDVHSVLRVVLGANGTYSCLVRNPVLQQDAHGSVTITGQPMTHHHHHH

B1: chAb18 (antibody, IgG1, V domains shown)
VH: QVQLQQSAAELARPGASVKMSCKASGYSFTSYTIHWVKQRPGQGLEWIGYINPNSRNTDYNQKFKDETTLTADRSSSTAYMQLISLTSEDSAVYYCARYSGSTPYWYFDVWGAGTTVTVSS
VL: QIVLTQSPAILSASPGEKVTMTCRASSSVSYMNWYQQKPGSSPKPWIYATSNLASGVPARFSVSVSGTSHSLTISRVEAEDAATYYCQQWSSNPLTFGAGTKLELK
notes: chimeric, huIgG1/k
B2: chAb18-CZ (antibody, IgG1, V domains shown)
VH: B1 VH
VL: B1 VL
modifications: synthon CZ on reduced interchain Cys
B3: chAb11-CZ (antibody, IgG1, V domains shown)
VH: EVKLVESGGGLVQPGGSLRLSCATSGFTFTNYYMSWVRQPPGKALEWLGFIRNKANDYTTEYSASVKGRFTISRDNSQSILYLQMNTLRAEDSATYYCARESPGNPFAYWGQGTLVTVSA
VL: DIVMTQSPSSLTVTAGEKVTMTCKSSQSLLNSGTQKNFLTWYQQKPGQPPKLLIYWASTRESGVPDRFTGSGSGTDFTLTISSVQAEDLAVYFCQNDYIYPLTFGAGTKLELK
modifications: synthon CZ on reduced interchain Cys
B4: chAb6-CZ (antibody, IgG1, V domains shown)
VH: QVQLQQSGAELMKPGASVKISCKATGYTFSRYWIEWVKQRPGHGLEWIGEILPGSGSTNYNEKFKGKATFTADTSSNTAYMQVSSLTSEDSAVHYCARRGYGYVPYALDYWGQGTSVTVSS
VL: EIQMTQTTSSLSASLGDRVTISCRASQDISNSLNWYQQKPDGTVNLLIYYTSRLYSGVPSRFSGSGSGTDYSLTISNLEQEDIATYFCQQGNTLPYTFGGGTKLEIK
modifications: synthon CZ on reduced interchain Cys
B5: chAb16-CZ (antibody, IgG1, V domains shown)
VH: EVKLLESGGGLVQPGGSLKLSCAASGFDFSRYWMSWVRQAPGKGLEWIGEINPDSSTINYTPSLKDKFIISRDNAKNTLYLQMSKVRSEDTALYYCARPGFGNYIYAMDYWGQGTSVTVSS
VL: B4 VL with E1D, S22N, S32F, N45K, S56L, Y96P
modifications: synthon CZ on reduced interchain Cys
B6: huAb3v1 (antibody, V domains shown)
VH: EVQLVQSGAEVKKPGSSVKVSCKASGYTFSSYWMHWVRQAPGQGLEWMGLIHPDSGSTNYNEMFKNRVTITADKSTSTAYMELSSLRSEDTAVYYCARGGRLYFDYWGQGTTVTVSS
VL: DIVMTQSPLSLPVTPGEPASISCRSSQSLVHSNGDTYLRWYLQKPGQSPQLLIYKVSNRFSGVPDRFSGSGSGTDFTLKISRVEAEDVGVYYCSQSTHVPYTFGGGTKVEIK
notes: humanized IgG
B7: chAb3 (antibody, IgG1, V domains shown)
VH: QVQLQQPGAELVKPGASVKLSCKASGYTFSSYWMHWVKQRPGQGLEWIGLIHPDSGSTNYNEMFKNKATLTVDRSSSTAYVQLSSLTSEDSAVYFCAGGGRLYFDYWGQGTTLTVSS
VL: DVVMTQTPLSLPVSLGDQASISCRSSQSLVHSNGDTYLRWYLQKPGQSPKLLIYKVSNRFSGVPDRFSGSGSGTDFTLKITRVEAEDLGVYFCSQSTHVPYTFGGGTKLEIK
notes: chimeric, huIgG1/k
B8: huAb3v5 (antibody, V domains shown)
VH: B6 VH with M48I, V68A, I70L, A72V, K74R, R98G
VL: B6 VL with I2V
notes: humanized IgG
B9: chAb2-CZ (antibody, IgG1, V domains shown)
VH: QVQLQQPGAELVKPGASVKLSCKASGYTFTSYWMHWVKQRPGQGLEWIGMIHPDSGTTNYNEKFRSKATLTVDKSSSTAYMQLSSLTSEDSAVYYCAVYYGSTYWYFDVWGTGTTVTVSS
VL: B7 VL with S20Y, S32I, D35N, R39H, L42R, T81S, V99F, Y101F, G105S
modifications: synthon CZ on reduced interchain Cys
B10: huAb3v3 (antibody, V domains shown)
VH: B6 VH with M48I, V68A, I70L, A72V, K74R, M81V, Y95F, R98G
VL: B6 VL with I2V, Y92F
notes: humanized IgG
B11: huAb3v6 (antibody, V domains shown)
VH: B6 VH with M48I, V68A, I70L, A72V, K74R, M81V, Y95F, R98G
VL: B6 VL with I2V
notes: humanized IgG
B12: huAb3v4 (antibody, V domains shown)
VH: B6 VH
VL: B6 VL with I2V
notes: humanized IgG
B13: chAb14-CZ (antibody, IgG1, V domains shown)
VH: EVKLVESGGGLVKPGGSLKLSCAASGFTFSSYGMSWVRQTPEKRLEWVATISGGGTNTYYPDSVEGRFTISRDNAKNFLYLQMSSLRSEDTALYYCARHYGSQTMDYWGQGTSVTVSS
VL: DIQMTQSPASLSASVGETVTITCRTSGNIHNYLTWYQQKQGKSPQLLVYNAKTLADGVPSRFSGSGSGTQFSLKINSLQPEDFGSYYCQHFWSIMWTFGGGTKLEIK
modifications: synthon CZ on reduced interchain Cys
B14: chAb4-CZ (antibody, IgG1, V domains shown)
VH: QVQLQQPGAELVKPGASVKLSCKASGYSFTSYWMHWVKQRPGQGLEWIGMIHPNSGSNNYNEKFKSKATLTVDKSSNTAYMQLSSLTSEDSAVYYCARRLGLHFDYWGQGTTLTVSS
VL: DIVMTQSQKFMSTPVGDRVSITCKASQNVGTAVAWYQQKPGQSPKLLIYSASNRYTGVPDRFTGSGSGTDFTLTISNMQSEDLADYFCQQYSSYPYTFGGGTKLEIK
modifications: synthon CZ on reduced interchain Cys

Columns and labels:
Human full length B7-H3 [1] = target: T1, Human full length B7-H3; assay: FACS, NCI-H1650 cells
Experimental: To generate purified chimeric antibodies, expression vectors were transiently transfected into HEK293 6E suspension cell cultures in a ratio of 60% to 40% light to heavy chain construct. 1 mg/ml of polyethylenimine (PEI) or 2.6 μL/mL of Expifectamine was used to transfect the cells. Cell supernatants were harvested after five days in shaking flasks, spun down to pellet cells, and filtered through 0.22 μm filters to separate IgG from culture contaminants. Antibody-containing supernatants were purified on Akta Pure using protein A mAb SelectSure. Columns were equilibrated in PBS pH 7.4, supernatants were then passed through the column and a wash was performed with PBS pH 7.4. IgG were eluted with 0.1 M acetic acid pH 3.5 and collected in several aliquots. Fractions containing IgG were pooled and dialyzed in PBS overnight at 4° C.
(§1) Cells were harvested from flasks when approximately 80% confluent using Gibco® Cell Dissociation Buffer. Cells were washed once in PBS/1% FBS (FACS buffer) then resuspended at 2.5×10⁶ cells/mL in FACS buffer. 100 μL of cells/well were added to a round bottom 96-well plate. 10 μL of a 10× concentration of mAb/ADC (final concentrations are indicated the figures). Wells were washed twice with FACS buffer and resuspended in 50 μL of secondary Ab (AlexaFluor 488) diluted in FACS buffer. The plate was incubated at 4° C. for one hour and washed twice with FACS buffer. Cells were resuspended in 100 μL of PBS/1% formaldehyde and analyzed on a Becton Dickinson LSRII flow cytometer. Data was analyzed using WinList flow cytometry analysis software.

[2] = target: T2, Human B7-H3-ECD (His tag); assay: SPR Biacore, naked mAb
Excerpt: (§2) Biacore T200 SPR instruments were used to measure the binding kinetics of human B7-H3 (analyte) binding to various mAbs (ligands). The assay format was Fc-based capture via immobilized anti-mouse (Fc) (Pierce 31170) or immobilized anti-human (Fc) (Pierce 31125). A standard amine coupling protocol was employed to immobilize the capture reagents via primary amines to the carboxy-methyl (CM) dextran surface of CM5 sensorchips (Biacore); capture antibodies were coupled to a level of approximately 5000RU. For binding kinetic measurements the assay buffer was HBS-EP+ (Biacore): 10 mM Hepes, pH7.4, 150 mM NaCl, 3 mM EDTA, 0.05% polysorbate 20. During the assay, all measurements were referenced against the capture surface alone. Each assay cycle consisted of the following steps: 1) Capture of ligand to approximately 50RU; 2) Analyte injection over both reference and test surface, 240 μL at 80 μL/min, after which the dissociation was monitored for 900 seconds at 80 μL/min; 3) Regeneration of capture surface with low pH glycine. […] Data were processed and fit to a 1:1 binding model using Biacore T200 Evaluation Software to determine the binding kinetic rate constants, kₐ (on-rate) and kd (off-rate), and the equilibrium dissociation constant (affinity, KD).
(§3) The parental chAb18 from which the variants were derived was also tested as a comparator.

Human full length B7-H3 [3] = target: T1, Human full length B7-H3; assay: FACS, cell surface human B7-H3 (as Example 6)
Experimental: as §1
Nine anti-B7-H3 chimeric antibodies were conjugated to the Bcl-xL inhibiting (Bcl-xLi) synthon CZ (Example 2.1) using conjugation Method A described below. The resulting ADCs (anti-B7-H3 antibodies conjugated to synthon CZ) were tested for binding to cell surface human B7-H3 by FACS (as described in Example 6) and for cell cytotoxicity in cell lines expressing B7-H3. […] Table 6 provides cell surface binding and cytotoxicity activity of anti-B7-H3 chimera ADCs against breast cancer cell HCC38 expressing human B7-H3.

Human full length B7-H3 [4] = target: T1, Human full length B7-H3; assay: FACS (Example 6 method)
Experimental: as §1, §3

[5] = target: T2, Human B7-H3-ECD (His tag); assay: SPR Biacore, naked mAb; remark: listed apart in the source
Excerpt: as §2
These variants were further characterized for binding by SPR and as ADCs conjugated to the Bcl-xL inhibitor synthon (linker warhead) CZ. […] An ADC comprising chAb3 conjugated to synthon CZ was used as a control.

Row | Binder | EC50 (Human full length B7-H3 [3]) [nM] | Kd [5] [nM] | also measured
1 | B1 | – | – | EC50 (Human full length B7-H3 [1]): 1.14 nM; Kd [2]: 0.17 nM
2 | B2 | 1.78 | – | EC50 (Human full length B7-H3 [4]): 1.14 nM
3 | B3 | 1.12 | – | –
4 | B4 | 0.56 | – | –
5 | B5 | 0.62 | – | –
6 | B6 | – | 0.52 | –
7 | B7 | – | 19 | EC50 (Human full length B7-H3 [1]): 0.61 nM
8 | B8 | – | 0.23 | –
9 | B9 | 2.6 | – | –
10 | B10 | – | 0.23 | –
11 | B11 | – | 0.2 | –
12 | B12 | – | 0.57 | –
13 | B13 | 0.5 | – | –
14 | B14 | 0.54 | – | –
